Common to all, as to assay: two-hybrid library CCNG1;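 also: natural log of median RNA to DNA barcode read ratio; higher means stronger binding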
Assay [1] addresses T1, P12bH1.
T1 chain: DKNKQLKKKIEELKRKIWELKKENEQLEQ

For assay [2], the target named is T2, 4H908-bN.
T2 chain: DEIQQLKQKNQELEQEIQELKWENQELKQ

The target of assay [3] is T3, 4H918-bN.
T3 chain: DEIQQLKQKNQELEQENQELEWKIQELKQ

For assay [4], the target named is T4, 4H967-bN.
T4 chain: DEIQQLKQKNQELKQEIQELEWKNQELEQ

Assay [5] deals with T5, 4H883-bN.
T5 chain: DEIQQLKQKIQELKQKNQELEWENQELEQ

For assay [6], the target named is T6, P6bH1.
T6 chain: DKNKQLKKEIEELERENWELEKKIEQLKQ

For assay [7], the target named is T7, 4H855-bN.
T7 chain: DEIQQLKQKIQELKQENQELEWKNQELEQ

Assay [8] concerns the target T8, 4H797-bN.
T8 chain: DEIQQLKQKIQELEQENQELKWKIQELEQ

The target of assay [9] is T9, 4H968-bN.
T9 chain: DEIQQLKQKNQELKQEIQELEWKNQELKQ

For assay [10], the target named is T10, 4H953-bN.
T10 chain: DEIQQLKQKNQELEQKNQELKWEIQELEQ

In assay [11] the target is T11, P9bH1.
T11 chain: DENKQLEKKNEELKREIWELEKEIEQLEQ

Assay [12] has as its target T12, P4bH1.
T12 chain: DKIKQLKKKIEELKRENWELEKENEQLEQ

Assay [13] concerns the target T13, P2bH1.
T13 chain: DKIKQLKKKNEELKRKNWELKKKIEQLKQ

Assay [14] concerns the target T14, P3bH1.
T14 chain: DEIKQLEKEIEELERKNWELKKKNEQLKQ

The target in assay [15] is T15, P8bH1.
T15 chain: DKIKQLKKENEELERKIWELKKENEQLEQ

Assay [16] addresses T16, P7bH1.
T16 chain: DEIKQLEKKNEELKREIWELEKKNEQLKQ

Assay [17] deals with T17, P5bH1.
T17 chain: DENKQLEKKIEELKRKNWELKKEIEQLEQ

The target in assay [18] is T18, P1bH1.
T18 chain: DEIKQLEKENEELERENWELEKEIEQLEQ

As for DEIQQLKQKIQELEQENQELKWKIQELEQ [4H797-bN], the interaction score in assay [1] is -0.66; in [2], -0.753; in assay [3], 1.02; in [4], -0.535; in assay [5], -1.53; in assay [6], 0.0343. In addition, the interaction score is 0.668 in assay [7], 0.569 in assay [8], -1.06 in assay [9] and -0.455 in assay [10].

For DKNKQLKKKIEELKRKIWELKKENEQLEQ [P12bH1], the interaction score in [1] was -1.4; in [11], -0.294; in assay [12] it was -0.999; in [13], -1.01; in [14], -1.43; in assay [15] it was -0.578. The interaction score in assay [16] is -0.861; in [6], -0.251; in [17], -0.826; in [18], -0.0192.

The values are drawn from publication PMC10397247.
